Measurements taken from PMC11134355 (JACS Au, 2024).

What was measured:
Test in all cases: fluorescence polarisation
Conditions in all cases: both partners purified
[1] = molecular target: TgPDCD5 C-terminal peptide (FITC-KNTPKVTM) (T. gondii (GT1 strain), FITC label, printed before the first residue (FITC-KNTPKVTM))
[2] = molecular target: TgPDCD5 middle-position peptide (FITC-VLTPAAQE) (T. gondii (GT1 strain), FITC label, printed before the first residue (FITC-VLTPAAQE))
[3] = molecular target: TgPDCD5 N-terminal peptide (FITC-MQPEEFA) (T. gondii (GT1 strain), FITC label, printed before the first residue (FITC-MQPEEFA))

B1: TgCyp18 (enzyme)
chain: not shown
Kd [1]: 311 µM
Kd [2]: 1200 µM
Kd [3]: 1400 µM
